Molecular target: soluble HLA-DM, wild type (DM WT) (human) (UniProt P28067)
Test: SPR

Substance: DR1 (DRα V65C) with disulfide-linked HA6 P2-P11 peptide (from UniProt P01903) (peptide-MHC)
- Kd: 1000 nM
- percent of maximal DM binding at pH 7.0: 40%
